Reference: the supplement of paper PMC9170038

Tested on: K4 kissing-loop RNA reporter
Assay: apparent KD of K4 kissing-loop reporter; higher = weaker reporter binding
Conditions: Eterna round: R107
Method: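 RNA-MaP round R107: designed RNA switches with theophylline, tryptophan, arginine or FMN aptamers are transcribed on-chip within common flanks. They are titrated with a labelled K4 kissing-loop RNA reporter in RNA-MaP buffer (100 mM Tris pH 7.5, 80 mM KCl, 4 mM MgCl2), without ligand or with the indicated ligand. Median apparent KD per design.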

[1] = input ligand: theophylline 20 uM
[2] = input ligand: tryptophan 2.4 mM
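Further: bound reporter read as fluorescence of individual clusters on recovered sequencing chips by microscopy, with normalized cluster intensities fitted with a binding model.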

Sequence | apparent KD of K4 kissing-loop reporter (input ligand: FMN 200 uM) [nM] | apparent KD of K4 kissing-loop reporter (input ligand: arginine 13.2 mM) [nM] | apparent KD of K4 kissing-loop reporter (input ligand: none) [nM] | apparent KD of K4 kissing-loop reporter [1] [nM] | apparent KD of K4 kissing-loop reporter [2] [nM]
GUAGCACUUGGUAGUGAUGUUACCAAGGACAAGGAUAUCAUCUCAAUGAGAAGGUGUCCUUGGUAACAGCUACGGGAAUAUCCCA [Omei KL FMN A Exc D v2] | 275 | 194 | 226 | 242 | 246
GUAGGAUGAGGAGGAGGAAGAAAUACUGAAGGAGCGCAAAGAAAUGCAGGUAGGUCGCGGUAAAGAAGUAUAGUGAUGUUAUAUA [SSArgA.C] | 452 | 450 | 406 | 411 | 373
GUAGGAUGAGGAGGAGGAUGAAUUACUGAAGGAGCGCAUAGAAAUGCAGGUAGGUCGCGGUAAAGAAGUAUAGUGAUGUUAUAUA [SSArgA.F] | 421 | 420 | 448 | 483 | 292
GUAUCAGUGAUGUUGAUAGGCGAGCGGGAUACCAGCCAAGACUCAGGCCCUUGGCAGCCCACAUAUCCCACGUAGAUAGUAGCUC [Same State - Theophylline A (Freestyle 16)] | 137 | 105 | 128 | 139 | 123
GUAUCGCUAGGAGGAUAUUUCAAUCCGCCUAUAAUAGGUGGUACGGAGUGAUGUUCCGAUUUACGGAAAGAAGGCCUAGUGAUAC [FMN B 16] | 142 | 265 | 297 | 283 | 278
GUAUCGCUAGGAGGAUAUUUCAAUUCGCCUAUAAAAGGUGAUACGGAGUGAUGUUCCGAUUUACGGAAAGAAGGCCUAGUGAUAC [FMN B 9] | 137 | 259 | 282 | 262 | 273
GUAUCGCUAGGAGGAUAUUUCAAUUCGCCUAUAAUAGGUGAUACGGAGUGAUGUUCCGAUUUACGGAAAGAAGGCCUAGUGAUAC [FMN B 10] | 144 | 229 | 244 | 239 | 237
GUAUCGCUAGGAGGAUAUUUCGUUUUUCAUAGCAAUGGCUAUGCGGAGUGAUGUUCCGAUUUACCGGAAGAAGGCCUAGUGAUAC [FMN B 26] | 109 | 172 | 202 | 205 | 165
GUCAGACCGGGACUCCAGUGAUGUUGGAGGCAGGAUAUCCAGUCGAGGAGAAGGGCCAGGGAUAUCGAGCUGCUCGGUUUGUAGU [Xexezaes] | 72.4 | 108 | 77.3 | 102 | 67.4
GUCCACACUGCAGGAUAUGGAGGAAUAGCGAGGGAGUGUGGAAGCACACCUCUGGCAGUGAUGUUGCCAGAAGGGCGGUGCGGCG [Cemaorar] | 111 | 75.5 | 76.4 | 69 | 93.4
GUCCACACUGCAGGAUAUGGAGGUAUAGCGAGGGAGUUUGGAAGCACACCUCUGGCAGUGAUGUUGCCAGAAGGGCGGUGCGGCG [Rauserin] | 82.4 | 89.5 | 99.2 | 64.3 | 83.9
GUCCCAGUGAUGUUGGUAGGCGAGCGGGAUACCAGCGAAGACUCACGCCCUUGGCAGCCCACAUAUCCCACGUAGGGAUUAGCUC [Same State - Theophylline A (Freestyle 20)] | 336 | 359 | 378 | 357 | 351
GUCUAGCUAGCAGGAUAUAGCUGGUAGUGAUGUUACCACUAGAACUCUGCGGAAACGCAGAGUAUCCUAGAAGGGCUAGCUAGAC | 95 | 65 | 75.4 | 63.9 | 66.8
GUCUCAAAAGAGGCAAGCACUCACGAGGACAAGGAUAUCAUAUCAAUGAGAAGGUGUCCUCGUCCUCAGUGAUGUUGAGGAGUGC [Omei KL FMN A SS E v4] | 410 | 200 | 247 | 233 | 257
GUCUCCGUCGAUGAUACCAGUCGAUGUACGUCAGGUACCCUUUGAGUGAUGUUCAGAUUAGACCCUUGGCAGCAUAUCGAGGCUC [theeternabot_exclusion_KL_Theo_B_24] | 370 | 452 | 514 | 444 | 303
GUCUGAUGCGUUGAUACCAGUCCUUCAGUGAUGUUGCAAGCGCGGCCUAUCAAGCAAUCCGACCCUUGGCAGCAAUAGGUCCGAA [theeternabot_exclusion_KL_Theo_B_9] | 892 | 568 | 850 | 872 | 661
GUGAAGGAGCAGCAGUGAUGUUGCUGAGACUAGGAUAUCAGGAAACUGAGAAGGAGUCAACUCCUUCACCUAGACUGCAACAUAA [KL-SSFMN-A13] | 173 | 167 | 180 | 249 | 152
GUGACACGUGAUGAUACCAGUCCACGGAAGUUCCUUAGUGAUGUUAACCUUGCUUUUUCUGACCCUUGGCAGCAUUAGUUGAGAA [theeternabot_sameState_KL_Theo_B_42] | 332 | 166 | 204 | 304 | 237
GUGACCUACUCAGGAUAUCCGCAGUGAUGUUGCGGUUGGCCUGAGCGACAUGAAAAUCUUACUACAGGAGAAGGGAGAGGGUUAC [Leanteti] | 113 | 92.7 | 109 | 89.2 | 91.5
GUGACGCGGACGGCCGCCACUCCGGUGACCGCUCCGUGCCGCCCUGCGCGAGUGAUGUUCGCCAGGAGGACCGGGUCCGACUUUA [Soesente] | 107 | 101 | 106 | 89.4 | 96.3
GUGCAAAGCACCGGCACGAGCAGCCUAAAGGAGGAUAUGACGAAAGUCAGAAGGUCUAGUGAUGUUAGGCCUUGCUUGAGUCGAA [Omei KL FMN A Exc B v3] | 288 | 278 | 402 | 405 | 327
GUGCAGUGAUGUUGCACGAGGAAAGACGAUACCAGCCGCAAAUGUGGCCCUUGGCAGCGUGGGCUAGCACAAAAUAUGCUAGUCU [Ricegeusat] | 131 | 113 | 119 | 98.9 | 108

Sequence | apparent KD of K4 kissing-loop reporter (input ligand: FMN 200 uM) [nM] | apparent KD of K4 kissing-loop reporter (input ligand: arginine 13.2 mM) [nM] | apparent KD of K4 kissing-loop reporter (input ligand: none) [nM] | apparent KD of K4 kissing-loop reporter [1] [nM] | apparent KD of K4 kissing-loop reporter [2] [nM]
GUGCAGUGAUGUUGCACGAGGAAAGACGAUACCAGCCGUAAAUAAGGCCCUUGGCAGCGUAGGCUAGCAUAAAGUACGCUAGUCC [Enarines] | 110 | 105 | 109 | 101 | 88.4
GUGCAGUGAUGUUGCACGAGGAAAGACGAUACCAGCCGUAAAUAAGGCCCUUGGCAGCGUAGGCUAGCAUAAAGUAUGCCAGUCU [Geleerra] | 117 | 112 | 121 | 113 | 96.5
GUGCAGUGAUGUUGCACGAGGAAAGACGAUACCAGCCGUAAAUAAGGCCCUUGGCAGCGUAGGCUAGCAUAAGGUAUGCUAGUCC [Atesermace] | 117 | 109 | 108 | 95.5 | 100
GUGCGGCUAGUGAUGUUGGUUGUGUGGGAAGGAGCGCAGAUACAUGCAGGUAGGUCGCCCACACCUCUGAAAGGAGGCUAAUUCA [KL-SSArg-A15] | 418 | 330 | 411 | 325 | 350
GUGCGGUGGAGGCUACCGCUACUCUGAGAAGGAGCGCAGAAGACUGCAGGUAGGUCGCUUAGAGCUUGCAGUGAUGUUGCAAGUU [KL-SSArg-A18] | 134 | 135 | 183 | 156 | 176
GUGGGCUCGGGAGGAUAUGAGUCUAGUGAUGUUAGGCGGUCCAUGCGCGUGGCGCGUUAUGCCCUUUUAGAAGGCCCGAGCCCUC [#2 Exclusion - FMN B Attempt #24 (HarryS)] | 99.8 | 68.8 | 90.1 | 86.4 | 85.3
GUGUAGAAGUGAGGAUAUCGAUUUAAGAAUAAGCAGUGAUGUUGCAAGCAGGAGGAAUAAGAUUAACGAGAAGGCGUGGAUAUAG [FMN B Exclusion; Euphoria Solution] | 104 | 110 | 125 | 141 | 99.1
GUGUGACUAGUGAUGUUGGUUGCGUGGGAAGGAGCGCAGUAAAAUGCAGGUAGGUCGCCCGUAUCUCUGAUAAAAGAUUAAUUCA [KL-SSArg-A10] | 181 | 128 | 158 | 137 | 153
GUGUGUGUCGGAGGAUAUGCGGUGGGUGUGGGCGGAUUAGUGAUGUUGGUUGUGGUGGUGGUGGGUGUAGAAGGUUGGUGUGUGU [RHig 3/7 C] | 710 | 350 | 738 | 400 | 444
GUUACGCAUGGAAGGAGCGCACUCCGGUUGAUCGACACAGUGAUGUUGUGGUUCAUUCGAAUGCAGGUAGGUCGCCAUGUGUAAC [Ex Arginine B K4 15] | 808 | 593 | 847 | 886 | 804
GUUACGCAUGGAAGGAGCGCAGGCUCAACAAAUAGCUCAGUGAUGUUGAGCAUAUUAAAACUGCAGGUAGGUCGCCAUGUGUAAC [Ex Arginine B K4 23] | 651 | 547 | 657 | 671 | 588
GUUACGCAUGGAAGGAGCGCUCUCCGGUUGAUUGACACAGUGAUGUUGUGAUUCUACCGUAAGCAGGUAGGUCGCCAUGUGUAAC [Ex Arginine B K4 13] | 950 | 809 | 1210 | 1050 | 921
GUUAUAUAAAUAAGAAAUAAAAUAAGGGAAGGAGCGCCGAGAAAGGCAGGUAGGUCGCCCAGUGAUGUUGGGAUUAAUUAAUUAG | 45 | 33.7 | 39.3 | 43.9 | 37.1
GUUGCAGCCCGUGAUACCAGCAUCGGUCGCCGGGUCCAGUGAUGUUGGGCUUGCGUUCUAUGCCCUUGGCAGCGCGGCCUGACAG [Qulaanar] | 415 | 104 | 174 | 393 | 415
GUUUCAGUGAUGUUGGAAGGCGAGCGGGAUACCAGCCAAGACUCAGGCCCUUGGCAGCCCACAUAUCCCACGUAGAUAGUAGCUC [Same State - Theophylline A (Freestyle 14)] | 161 | 116 | 133 | 153 | 137
GUUUUAUAAGAGGAUACCAGUACAAAUAAAGUACAUUAAUAGUAGAGUGAUGUUCUAAAGUACCCUUGGCAGCUUAGAUUAAGUU [ExTheophylB.E] | 147 | 236 | 170 | 252 | 116
UAAAUUAAGCUUUGCUGAUUAAUAAGCGAUACCAGCAAAUAAUGAUGCCCUUGGCAGCGUUAUAAUCUAGUGAUGUUAGAUUAGU [Not much to say about this one] | 92.6 | 106 | 101 | 103 | 85
UAACCUGUAAACGAUACCAGUUGCAUGGAAACUUGGUACUAGCUAGUGAUGUUAGCAAGCAACCCUUGGCAGCGUCGCCUGACAG [theeternabot_sameState_KL_Theo_B_17] | 308 | 427 | 395 | 487 | 309
UAACGACUCGGAAGGAGCGCGGUUUUAAAAGACUAAGGCCGAGUGAUGUUCGGAGAAGUCCCGCAGGUAGGUCGCCGGGUUGUGG [Ceororedar] | 124 | 138 | 130 | 199 | 148
UAACGCCACUAAGAUACCAGACAUACAGAUCGGAUCUCCUAAAGAGAGUGAUGUUCUCUAGUCCCUUGGCAGCUUCUGGACUCCC [theeternabot_sameState_KL_Theo_B_9] | 296 | 356 | 406 | 396 | 291
UAAGAGGACCACUGCAAGAGUCCUCGAAUACGAGGACCGGUACGGCCGCCACUCGAUAAUUUGCAGUGAUGUUGCAAGUAAGAAU [BrourdMod 5 - Jieux - Same State Tryptophan A] | 115 | 167 | 130 | 177 | 54.4
